Data from patent CN101357942A.

Columns and labels:
[1] = molecular target: 天然Stx2 (natural Shiga toxin II of enterohaemorrhagic E. coli O157:H7) (肠出血性大肠杆菌(EHEC) O157:H7) (UniProt P09385)
[2] = molecular target: 天然Stx2 (natural Shiga toxin II of enterohaemorrhagic E. coli O157:H7) (肠出血性大肠杆菌(EHEC) O157:H7) (UniProt P09385); experiment: cell-based or functional assay

Chain of UniProt P09385 (P09385 23-319, chain 1 of 2): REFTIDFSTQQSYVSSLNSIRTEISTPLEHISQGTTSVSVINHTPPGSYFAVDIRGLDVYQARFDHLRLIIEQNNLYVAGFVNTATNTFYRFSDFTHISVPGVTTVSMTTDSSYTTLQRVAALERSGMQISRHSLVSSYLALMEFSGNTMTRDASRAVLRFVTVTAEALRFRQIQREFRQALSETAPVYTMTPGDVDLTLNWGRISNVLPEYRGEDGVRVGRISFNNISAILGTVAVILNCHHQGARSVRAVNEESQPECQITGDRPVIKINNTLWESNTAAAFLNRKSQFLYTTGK
Chain of UniProt P09385 (P09386 20-89, chain 2 of 2, further chain): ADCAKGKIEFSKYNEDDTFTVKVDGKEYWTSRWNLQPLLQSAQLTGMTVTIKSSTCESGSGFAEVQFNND

B1: 1F2Fab抗体 (recombinant Fab of 1F2, expressed from Pcomb3X-1F2Fab in E. coli XL-blue) (Fab, V domains shown)
VH: SGGGLVQPGGSLKLSCAASGFTFSVYGMSWVRQTPDKRLELVATINNNGGSTYYPDSVKGRFTISRDNAKNTLYLQMSSLKSEDTAMYYCASIPLFGNYWGQGTSVTVSS
VL: MTQTPLSLPVSLGDQASISCRSSQSIVHSNGNTYLEWYLQKPGQSPKFLIYKVSRFSGVPDRFSGSGSGTDFTLKISRVEAEDLGVYYCFQGSHVPWTFGGGTKLEIKR
In the case of B1, the affinity relative to parental mAb 1F2 [1] is reported as 85% and the 对Stx2细胞毒作用的抑制率 (Vero cells, MTT) [2] is reported as 83%.
